Reference: the Human Domainome abundance scans (Beltran et al. 2025)

B1: Serine/threonine-protein kinase A-Raf, residues 21 to 89; numbered along this chain, P10398 (parent)
chain: VKVYLPNKQRTVVTVRDGMSVYDSLDKALKVRGLNQDCCVVYRLIKGRKTVTAWDTAIAPLDGEELIVE

Variants of: B1
Test: abundance fitness (aPCA) (normalised: wild type 0, dead -1); higher = more abundant; growth selection in yeast, the domain comes from the species named
Conditions: Homo sapiens

Abundance fitness: each site, then its substitutions
K46: A 0.001 | P -0.941 | G 0.014 | Y -0.41
T56: G -0.21 | P -0.614 | R -0.276 | H -0.151 | N -0.278 | A 0.021 | I -0.47 | C -0.09 | Y -0.225 | D -0.069 | F -0.693 | M -0.095 | S -0.009 | E 0.106 | L -0.253 | V -0.235 | K -0.153
D62: E -0.128 | P -0.095 | C 0.13 | T -0.111 | M -0.062 | R -0.049 | Y -0.311 | F -0.608 | A 0.004 | I -0.015 | K -0.097 | N -0.051 | H -0.073 | S 0.036 | L -0.078 | G -0.047
A59: W -0.14 | I 0.131 | M 0.078 | R -0.007 | D -0.08 | G 0.017 | N -0.366 | V -0.122 | Y 0.01 | L -0.071 | T 0.054 | K -0.076 | C -0.188 | S 0.002 | E -0.068 | Q -0.008 | P -0.646 | F -0.015
P60: Q 0.121 | K 0.024 | D 0.138 | F -0.036 | Y 0.043 | A 0.147 | V -0.04 | W -0.199 | L 0.001 | M 0.084 | H -0.06 | R -0.067 | E 0.064 | T 0.027 | C -0.221 | S 0.098
T52: Y -0.188 | G -0.956 | A -0.174 | D -0.978 | C -0.161 | Q -0.317 | W -0.31 | P -1.04 | V 0.117 | M 0.118 | F -0.708 | K -0.356 | R -0.529 | L 0.052 | I 0.141 | S -0.567 | H -0.625
A53: E 0.08 | C -0.166 | D -0.03 | M -0.549 | T -0.127 | W -0.728 | Y -0.377 | R -0.149 | N -0.257 | L -0.455 | K -0.079 | H -0.098 | S -0.058 | G -0.033 | P 0.032 | Q -0.078
L61: M 0.017 | Q -0.088 | P -0.631 | S -0.156 | R -0.108 | H -0.312 | N -0.371 | V -0.112 | C -0.367 | E -0.25 | D -0.365 | W -0.297 | T -0.23 | K -0.142 | G -0.176 | A -0.168 | I -0.206
I58: C -0.001 | D -0.881 | A -0.201 | M -0.004 | F -0.021 | P -0.872 | V -0.185 | G -0.725 | K -0.86 | Q -0.952 | N -0.858 | S -0.278 | T -0.729 | L -0.015 | Y 0.146
G47: E -0.573 | D -0.71 | C -0.826 | L -0.873 | K -0.768 | W -0.888 | F -0.998 | N -0.665 | M -1.06 | R -0.841 | H -0.907 | S -0.734 | P -0.959 | V -0.863 | Q -0.359
K49: L -0.331 | P -0.445 | A -0.516 | Q -0.566 | D -0.804 | E -0.847 | F -0.63 | H -0.551 | R -0.135 | S -0.8 | G -0.863 | T -0.968 | V -0.934 | Y -0.668 | M -0.22 | C -0.672
